{"source": "paper doi:10.1101/850305", "about": "(bioRxiv, 2019)", "biological_target": "the molecule itself", "test": "crystal structure"}
{"protein": "E. coli LpxA UDP-N-acetylglucosamine acyltransferase (enzyme, UniProt P0A722 1-262, looked up) MIDKSAFVHPTAIVEEGASIGANAHIGPFCIVGPHVEIGEGTVLKSHVVVNGHTKIGRDNEIYQFASIGEVNQDLKYAGEPTRVEIGDRNRIRESVTIHRGTVQGGGLTKVGSDNLLMINAHIAHDCTVGNRCILANNATLAGHVSVDDFAIIGGMTAVHQFCIIGAHVMVGGCSGVAQDVPPYVIAQGNHATPFGVNIEGLKRRGFSREAITAIRNAYKLIYRSGKTLDEVKPEIAELAETYPEVKAFTDFFARSTRGLIR", "values": [{"measurement": "stoichiometry N", "result": 3}]}
